Test results: patent EP4806914A1

How the values were obtained:
[1] = target: AAV9 empty capsid (adeno-associated virus serotype 9 (AAV9)); test: ELISA, 0.1 ug AAV9 coated on Maxisorp plate, scFv detected with HRP-labeled anti-His-Tag antibody, A450-A650; reference: blank (BSA)
[2] = target: AAV9 full capsid (adeno-associated virus serotype 9 (AAV9)); test: ELISA, 0.1 ug AAV9 coated on Maxisorp plate, scFv detected with HRP-labeled anti-His-Tag antibody, A450-A650; reference: AAV9 empty capsid sample

Binder | IE/IB (ratio of ELISA absorbance for the empty capsid sample to that for the blank (BSA)) [1] | IF/IE (ratio of ELISA absorbance for the full capsid sample to that for the empty capsid sample) [2]
third anti-AAV-scFv [3] (scFv) scFv: QSVEESGGDLVKPGASLTLTCTASGIDFSSGYDMCWVRQAPGKGLEWIGCIYTGGDSAWYASWAKGRFTISKTSSTTVTLQMTSLTGADTATYFCANDLDSGTVSIWGPGTLVTVTSGGGGSGGGGSGGGGSELVLTQTAASVSEPVGGTVTIKCQASQSISSWLSWYQQKPGQPPKLLIYQASKLASGVPSRFKGSGSGTQFTLTISDVVCDDAATYYCAGWTSSTTDGTAFGGGTEVVITGSAAAGGGSEQKLISEEDLGGGSHHHHHH | 2.22 | 6.11
second anti-AAV-scFv [2] (scFv) scFv: QSLEESGGDLVKPGASLTLTCTASGFSFSSNYWMFWVRQAPGKGLEWIAHIYGGSSGSTYYASWAKGRFTISKTSSTTVTLQMTSLTAADTATYFCATVDNGYSDLKLWGPGTLVTVTSGGGGSGGGGSGGGGSELVLTQTADSVEAGVGGTVTIKCQASQSIRNWLSWYQQKPGQPPKLLISRASTLASGVPSRFSGSGSGTEFTLTISDLECDDGATYYCQSSFYADSGEPAFGGGTEVDIKRSAAAGGGSEQKLISEEDLGGGSHHHHHH |  | 8.23
first anti-AAV-scFv [1] (scFv) scFv: QSLEESGGGLVKPGASLTLTCTASGFSFSSYGISWFRQAPGKGLEWIGTIYGGSSGSTYYASWAKGRFTISKTSSTTMTLQMASLTAADTATYFCARDRVGGNGYADLWGPGTLVTVTSGGGGSGGGGSGGGGSELVMTQTAASVEAAVGGTVTIKCQASQSISSYLAWYQQKPGQRPKLLIYRASTLASGVSSRFKGSGSGTEYTLTISDLECDDAATYYCQSHYDIRNYGVAFGGGTEVDIKRSAAAGGGSEQKLISEEDLGGGSHHHHHH | 1.5 | 6.54
fourth anti-AAV-scFv [4] (scFv) scFv: QSLEESGGDLVKPGASLTLTCTASGFSFSSSAYMCWVRQAPGKGLEWIGCMHTISSVDTYYASWAKGRFAISKASSTTVTLQMTSLTAADTATYFCARDDRNGYGYPYSFDIWGPGTLVTVTSGGGGSGGGGSGGGGSELDLTQTAASVEAAVGGTITIKCQASQTISSYLAWYQQKPGQPPKLLIYRASTLASGVSSRFKGSGSGTEYTLTISDLECADAATYYCLTYYGNSHNFGGGTEVVIKGSAAAGGGSEQKLISEEDLGGGSHHHHHH | 3.09 | 7.17
